Columns and labels:
Assay in all cases: SPR
[1] = biological target: afucosylated A330W E269I KiH Rituximab IgG1 (human)
[2] = biological target: afucosylated agalactosylated KiH-A330W anti-DENV2 E protein IgG1 (C10) (human)
[3] = biological target: bifucosylated A330W E269I KiH Rituximab IgG1 (human)
[4] = biological target: bifucosylated A330W E269M KiH Rituximab IgG1 (human)
[5] = biological target: monofucosylated A330W E269I KiH Rituximab IgG1 (human)
[6] = biological target: monofucosylated A330W E269M KiH Rituximab IgG1 (human)
[7] = biological target: monoglycosylated bifucosylated IgG (human)
[8] = biological target: monoglycosylated monofucosylated IgG (human)

Substance: soluble human FcγRIIIA-F158 ectodomain (from UniProt P08637 17-208) (receptor)
- Kd [1]: 159 nM
- Kd [2]: 39 nM
- Kd [3]: 2070 nM
- Kd [4]: 1480 nM
- Kd [5]: 698 nM
- Kd [6]: 119 nM
- Kd [7]: 1640 nM
- Kd [8]: 554 nM

Source: PMC12796453
